Measurements as given in paper PMC4741959, “Methionine adenosyltransferase α2 sumoylation positively regulate Bcl-2 expression in human colon and liver cancer cells”.

B1: Bcl-2 P2 promoter probe 1 (site 1) (dsDNA)
DNA 1: TGCGGATTGACATTTCTGTGAA
DNA 2: TTCACAGAAATGTCAATCCGCA
B2: Bcl-2 P2 promoter probe 3 (site 3) (dsDNA)
DNA 1: GGCAGCTTAATACATTCTTTTTAGCCG
DNA 2: CGGCTAAAAAGAATGTATTAAGCTGCC
B3: Bcl-2 P2 promoter probe 2 (site 2) (dsDNA)
DNA 1: GGTTTAATGTAACTTTCAATGG
DNA 2: CCATTGAAAGTTACATTAAACC

What follows are binders tested against recombinant MATα2 (UniProt P31153 1-395) (assay: EMSA; 200 ng protein; LightShift Chemiluminescent EMSA Kit protocol (Thermo); buffer, salt, pH and binding temperature not stated). Settings: label: biotin (extract EMSA), SYBR Green gel stain with recombinant protein, blunt.
recombinant MATα2, sequence (P31153 whole entry): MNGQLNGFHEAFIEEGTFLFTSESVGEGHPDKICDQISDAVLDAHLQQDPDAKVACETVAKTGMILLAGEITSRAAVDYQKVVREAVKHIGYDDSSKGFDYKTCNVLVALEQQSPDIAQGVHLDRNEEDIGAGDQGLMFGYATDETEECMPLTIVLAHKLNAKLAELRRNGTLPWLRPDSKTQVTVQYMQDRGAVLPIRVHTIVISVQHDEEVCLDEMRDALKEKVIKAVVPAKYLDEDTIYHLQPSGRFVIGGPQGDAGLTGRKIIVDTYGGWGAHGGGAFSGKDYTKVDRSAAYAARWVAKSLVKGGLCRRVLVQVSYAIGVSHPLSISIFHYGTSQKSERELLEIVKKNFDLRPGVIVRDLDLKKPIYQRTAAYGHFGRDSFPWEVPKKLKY

Binding result, binds:
B1
B2
B3
